Here are results for 17 molecules from patent publication US20240383996A1 (SHANGHAI HENLIUS BIOTECH, published 2024).

Experiment [1] addresses T1, Human OX40 expressed on transfected Jurkat or CHO cells (human, UniProt P43489 29-277).
T1 construct: also called human OX40/Jurkat; human OX40/CHO
T1 sequence: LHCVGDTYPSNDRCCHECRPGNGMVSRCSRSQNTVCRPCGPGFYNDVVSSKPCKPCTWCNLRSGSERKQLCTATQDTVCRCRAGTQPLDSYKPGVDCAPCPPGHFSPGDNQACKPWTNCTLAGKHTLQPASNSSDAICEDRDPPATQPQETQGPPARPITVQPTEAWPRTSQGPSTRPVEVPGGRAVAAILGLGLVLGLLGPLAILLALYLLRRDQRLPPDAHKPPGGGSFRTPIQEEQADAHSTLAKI
The experiment can be described thus: flow cytometry on human OX40-transfected Jurkat cells, Alexa Fluor488 anti-human IgG Fc, Geo MFI. On the procedure: FIGS. 2A-2C depict whole cell binding of humanized anti-OX40 antibodies to human or cynomolgus OX40 assessed by flow cytometry. Human OX40-expressing Jurkat cells (FIG. 2A), human OX40-expressing CHO cells (FIG. 2B) and cynomolgus OX40-expressing CHO cells (FIG. 2C) were incubated with indicated anti-OX40 bivalent antibodies, and then stained with Alexa Fluor488 conjugated anti-human IgG Fc antibody. The fluorescence intensity was measured by flow cytometry.
(§1) Bivalent antibodies of these 15 clones were made by fusing VHH to human IgG1 Fc, expressed in ExpiCHO cells, and purified by Protein A affinity column. Binding affinity of the VHH-Fc bivalent antibodies to human or cynomolgus OX40 was evaluated by flow cytometry using Jurkat cells transfected with human OX40 (human OX40/Jurkat) (FIG. 2A), CHO cells transfected with human OX40 (human OX40/CHO) (FIG. 2B), and CHO cells transfected with cynomolgus OX40 (cyno OX40/CHO) (FIG. 2C). These antibodies with indicated concentrations were incubated with the cells in FACS buffer (3% FBS in PBS) on ice for 30 min, and the free antibodies were washed out with FACS buffer. Alexa fluor488 conjugated anti-human IgG Fc antibody (1:500) (Alexa Fluor488 AffiniPure goat anti-human IgG, Fcg fragment specific, Jackson labs) was further incubated with the cells on ice for 30 min. Cells were washed to remove free antibodies prior to FACS analysis using CytoFlex (Beckman Coulter). Binding affinity was calculated using GraphPad Prism three parameter logistic equation.
Background: In flow cytometry, cells or beads pass a laser one at a time.

Experiment [2] concerns the target T1, Human OX40 expressed on transfected …. The experiment can be described thus: flow cytometry, whole cell binding to human OX40-expressing Jurkat cells, Geo MFI.
Experiment [3] concerns the target T2, Recombinant human OX40 extracellular domain fused to human IgG1 Fc (human, UniProt P43489 29-214).
T2 construct: Produced in-house; also called OX40 ECD-Fc; human OX40 ECD-Fc; not shown: human IgG1 Fc
T2 sequence: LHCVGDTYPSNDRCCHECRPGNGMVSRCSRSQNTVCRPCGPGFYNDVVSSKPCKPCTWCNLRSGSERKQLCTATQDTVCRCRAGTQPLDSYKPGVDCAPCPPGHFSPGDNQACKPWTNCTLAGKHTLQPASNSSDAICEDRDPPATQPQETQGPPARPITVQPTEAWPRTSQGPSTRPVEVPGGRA
The experiment can be described thus: Octet, human OX40 ECD-Fc immobilized on a biosensor chip. An excerpt:
The tetravalent antibodies were produced from transiently transfected ExpiCHO cells, and purified by Protein A affinity column.
(Biolayer interferometry detects binding as a change in optical thickness at a sensor tip.)

Experiment [4] addresses T1, Human OX40 expressed on transfected …. The experiment can be described thus: flow cytometry on human OX40-expressing Jurkat cells, Geo MFI. As to the method:
(§2) FIGS. 4A-4D depict whole cell binding of anti-OX40 antibodies to human and cynomolgus OX40 assessed by flow cytometry.
as §1
(§3) The binding affinity of the anti-OX40 antibodies was further evaluated by flow cytometry using human OX40/Jurkat cells and human OX40/CHO cells using protocols described above. […] The cross-reactivity of the antibodies to cynomolgus OX40 was assessed by FACS analysis using cyno OX40/CHO cells.

The target of experiment [5] is T3, Cynomolgus OX40 expressed on transfected CHO cells (cynomolgus).
T3 chain: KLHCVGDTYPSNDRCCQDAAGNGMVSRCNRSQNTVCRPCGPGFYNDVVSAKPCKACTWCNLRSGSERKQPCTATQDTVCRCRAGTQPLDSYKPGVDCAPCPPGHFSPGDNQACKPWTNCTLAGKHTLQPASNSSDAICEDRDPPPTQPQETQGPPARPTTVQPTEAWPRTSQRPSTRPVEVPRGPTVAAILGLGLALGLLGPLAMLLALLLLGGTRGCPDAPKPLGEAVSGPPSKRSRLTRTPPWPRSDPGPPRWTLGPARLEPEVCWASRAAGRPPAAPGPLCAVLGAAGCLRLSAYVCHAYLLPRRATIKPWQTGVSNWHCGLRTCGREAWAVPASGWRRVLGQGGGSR
The experiment can be described thus: flow cytometry on cynomolgus OX40-expressing CHO cells, Geo MFI. As to the method:
as §2
as §1, with “Cells were washed to remove free antibodies prior to FACS analysis using CytoFlex (Beckman Coulter).” left out
as §3

The target in experiment [6] is T1, Human OX40 expressed on transfected …. The experiment in a line: flow cytometry on human OX40-expressing CHO cells, Geo MFI. On the procedure: as §2, §1, §3
The target is the same in experiment [7]. The experiment in a line: flow cytometry, whole cell binding to human OX40-expressing Jurkat cells, Geo MFI. The source holds these as a separate data set.

B1: 4H2 VHH-Fc bivalent antibody (antibody, human IgG1, V domains shown)
VH: EVQLVESGGGLVQPGGSLRLSCAASGPLGYPSIAWFRQAPGKGLEFVSGIAWSTGDTYYADSVKGRFTISRDNSKNTLYLQMNSLRAEDTAVYYCAADTVVHYMGRHDIRDAEEYDYWGQGTLVTVSS
notes: Humanized VHH fused to human IgG1 Fc
Regarding B1, in experiment [1], the binding result was “binds”.

B2: 1B3 tetravalent anti-OX40 antibody (1B3 VHH with GS linker on CH1 and on CL of human IgG1) (antibody, V domains shown)
V domain 1: EVQLVESGGGLVQPGGSLRLSCAASGPLGMPSIAWFRQAPGKGLEFVSGIAWSTGDTYYADSVKGRFTISRDNSKNTLYLQMNSLRAEDTAVYYCAADTQVHYMGRHDIRDREEYDYWGQGTLVTVSS
V domain 2: EVQLVESGGGLVQPGGSLRLSCAASGPLGMPSIAWFRQAPGKGLEFVSGIAWSTGDTYYADSVKGRFTISRDNSKNTLYLQMNSLRAEDTAVYYCAADTQVHYMGRHDIRDREEYDYWGQGTLVTVSS
notes: Four-chain format; The heavy and light variable regions of human IgG1 are replaced by the VHH
A word on the EC50: it is the concentration at which the effect is half-maximal. Lower therefore signals a more potent agent. What is called Kd is the concentration at which binding is half-saturated. The koff is the first-order rate constant of dissociation. Turning to B2, the EC50 in experiment [2] amounted to 0.15 nM; in experiment [4], 0.16 nM; in experiment [5], 1.93 nM; in experiment [6], 2.01 nM. Besides, the dissociation constant Kd in experiment [3] is 6.57 nM. Moreover, in experiment [3], the koff came out at 0.000646 s⁻¹.

B3: 1B3 VHH-Fc bivalent antibody (antibody, human IgG1, V domains shown)
VH: EVQLVESGGGLVQPGGSLRLSCAASGPLGMPSIAWFRQAPGKGLEFVSGIAWSTGDTYYADSVKGRFTISRDNSKNTLYLQMNSLRAEDTAVYYCAADTQVHYMGRHDIRDREEYDYWGQGTLVTVSS
notes: also called 1B3-bivalent
For B3, in experiment [3], the equilibrium dissociation constant (Kd) came out at 3.83 nM and the koff came out at 0.000391 s⁻¹. A half-maximal effect in experiment [4] (EC50) was put at 4.25 nM. The midpoint of the response in experiment [6], the EC50, lay at 2.69 nM.

B4: 1E6 VHH-Fc bivalent antibody (antibody, human IgG1, V domains shown)
VH: EVQLVESGGGLVQPGGSLRLSCAASGPLGLPSIAWFRQAPGKGLEFVSGIAWSTGDTYYADSVKGRFTISRDNSKNTLYLQMNSLRAEDTAVYYCAADTVVHYMGQHDIRDRVEYDYWGQGTLVTVSS
notes: as for B1
Regarding B4, the binding result in experiment [1] is reported as “binds”.

B5: 2D9 VHH-Fc bivalent antibody (antibody, human IgG1, V domains shown)
VH: EVQLVESGGGLVQPGGSLRLSCAASGPLGYPNIAWFRQAPGKGLEFVSGIAWSTGDTYYADSVKGRFTISRDNSKNTLYLQMNSLRAEDTAVYYCAADTVVHYMGRHDIRDREVYDYWGQGTLVTVSS
notes: as for B1
With B5, the binding result in experiment [1] is “binds”.

B6: 4D10 VHH-Fc bivalent antibody (antibody, human IgG1, V domains shown)
VH: EVQLVESGGGLVQPGGSLRLSCAASGPLGYPFIAWFRQAPGKGLEFVSGIAWSTGDTYYADSVKGRFTISRDNSKNTLYLQMNSLRAEDTAVYYCAADTVVHYMGRHDIRDREEYDYWGQGTLVTVSS
notes: as for B1
Take B6: in experiment [1], the binding result is listed as “binds”.

B7: 1B7 VHH-Fc bivalent antibody (antibody, human IgG1, V domains shown)
VH: EVQLVESGGGLVQPGGSLRLSCAASGPLGEPSIAWFRQAPGKGLEFVSGIAWSSGDTYYADSVKGRFTISRDNSKNTLYLQMNSLRAEDTAVYYCAADTVVHYMGRHDIRDREEYDYWGQGTLVTVSS
notes: as for B1
Regarding B7, the binding result in experiment [1] was “binds”.

B8: 2B7 tetravalent anti-OX40 antibody (2B7 VHH with GS linker on CH1 and on CL of human IgG1) (antibody, V domains shown)
V domain 1: EVQLVESGGGLVQPGGSLRLSCAASGPLGAPSIAWFRQAPGKGLEFVSGIAWSTGDTYYADSVKGRFTISRDNSKNTLYLQMNSLRAEDTAVYYCAADTSVHYMGRHDIRDYEEYDYWGQGTLVTVSS
V domain 2: EVQLVESGGGLVQPGGSLRLSCAASGPLGAPSIAWFRQAPGKGLEFVSGIAWSTGDTYYADSVKGRFTISRDNSKNTLYLQMNSLRAEDTAVYYCAADTSVHYMGRHDIRDYEEYDYWGQGTLVTVSS
B8: the EC50 stood at 0.14 nM in experiment [2]; 0.2 nM in experiment [4]; 0.39 nM in experiment [7]; 1.98 nM in experiment [5]; 1.96 nM in experiment [6]. The Kd in experiment [3] was 6.94 nM. Besides, in experiment [3], the off-rate constant (koff) was found to be 0.000763 s⁻¹.

B9: 4F5 VHH-Fc bivalent antibody (antibody, human IgG1, V domains shown)
VH: EVQLVESGGGLVQPGGSLRLSCAASGPLGLPSIAWFRQAPGKGLEFVSGIVWSGGDTYYADSVKGRFTISRDNSKNTLYLQMNSLRAEDTAVYYCAADTKVHYMGRFDIRDLEEYDYWGQGTLVTVSS
notes: as for B1
As for B9, the binding result in experiment [1] is given as “binds”.

B10: 1C8 VHH-Fc bivalent antibody (antibody, human IgG1, V domains shown)
VH: EVQLVESGGGLVQPGGSLRLSCAASGPLGLPSIAWFRQAPGKGLEFVSGIAWEGGDTYYADSVKGRFTISRDNSKNTLYLQMNSLRAEDTAVYYCAADTVVHYMGRHDIRDYEEYDYWGQGTLVTVSS
notes: as for B1
As to B10, the binding result in experiment [1] is on record as “binds”.

B11: 1F4B VHH-Fc bivalent antibody (antibody, human IgG1, V domains shown)
VH: EVQLVESGGGLVQPGGSLRLSCAASGPLGTPSIAWFRQAPGKGLEFVSAIAWSQGDTYYADSVKGRFTISRDNSKNTLYLQMNSLRAEDTAVYYCAADTVVHYMGRHDIRDEEEYDYWGQGTLVTVSS
notes: as for B1
Regarding B11, the binding result in experiment [1] is on record as “binds”.

B12: 2B7 VHH-Fc bivalent antibody (antibody, human IgG1, V domains shown)
VH: EVQLVESGGGLVQPGGSLRLSCAASGPLGAPSIAWFRQAPGKGLEFVSGIAWSTGDTYYADSVKGRFTISRDNSKNTLYLQMNSLRAEDTAVYYCAADTSVHYMGRHDIRDYEEYDYWGQGTLVTVSS
notes: also called 2B7-bivalent
With B12, in experiment [3], the Kd worked out at 3.68 nM and the koff came to 0.000398 s⁻¹. The EC50 in experiment [4] came out at 9.79 nM. A half-maximal response in experiment [6] (EC50) required 3.11 nM.

B13: 1G9B VHH-Fc bivalent antibody (antibody, human IgG1, V domains shown)
VH: EVQLVESGGGLVQPGGSLRLSCAASGPLGYPHIAWFRQAPGKGLEFVSGIAWSGGDSYYADSVKGRFTISRDNSKNTLYLQMNSLRAEDTAVYYCAADTLVHYMGRHDISDREEYDYWGQGTLVTVSS
notes: as for B1
B13: the binding result in experiment [1] was “binds”.

B14: 4E8 VHH-Fc bivalent antibody (antibody, human IgG1, V domains shown)
VH: EVQLVESGGGLVQPGGSLRLSCAASGPLGYPSFAWFRQAPGKGLEFVSGIAWSSGDTYYADSVKGRFTISRDNSKNTLYLQMNSLRAEDTAVYYCAADTVVGYMGRHDIRDLEEYDYWGQGTLVTVSS
notes: as for B1
Turning to B14, in experiment [1], the binding result is on record as “binds”.

B15: 2D3B VHH-Fc bivalent antibody (antibody, human IgG1, V domains shown)
VH: EVQLVESGGGLVQPGGSLRLSCAASGPLGSPSIAWFRQAPGKGLEFVSGIAWSTGDTYYADSVKGRFTISRDNSKNTLYLQMNSLRAEDTAVYYCAADTVVHYMVRHDIRDRESYDYWGQGTLVTVSS
notes: as for B1
Turning to B15, in experiment [1], the binding result was “binds”.

B16: 3B8 VHH-Fc bivalent antibody (antibody, human IgG1, V domains shown)
VH: EVQLVESGGGLVQPGGSLRLSCAASGPLGQPSIAWFRQAPGKGLEFVSGIAWSSGDTYYADSVKGRFTISRDNSKNTLYLQMNSLRAEDTAVYYCAADTRVHYMGRHDIRDREEYDYWGQGTLVTVSS
notes: as for B1
Turning to B16, the binding result in experiment [1] is recorded as “binds”.

B17: 4A6B VHH-Fc bivalent antibody (antibody, human IgG1, V domains shown)
VH: EVQLVESGGGLVQPGGSLRLSCAASGPLGYPLIAWFRQAPGKGLEFVSGIAWSDGDTYYADSVKGRFTISRDNSKNTLYLQMNSLRAEDTAVYYCAADTVVHYMGRHDIRDRSEYDYWGQGTLVTVSS
notes: as for B1
Take B17: in experiment [1], the binding result was “binds”.
